Source: patent US20230220071A1 (Hoffmann-La Roche, published 2023)
Residue numbers refer to the chain shown, from its start.

B1: clone 299 VH 15 / VL 9-NYA (antibody, V domains shown)
VH: QQLQESGPGLVKPSETLSLTCTVSGFSLSSYAMSWVRQPPGKGLEWIGYIWSGGSTDYNPSLKSRVTISVDTSKNQVSLKLSSVTAADTAVYYCARRYGTSYPDYGDANGFDPWGQGTLVTVSS
VL: AIQLTQSPSSLSASVGDRVTITCRASQSISSYLAWYQQKPGKAPKLLIYRASTLASGVPSRFSGSGSGTDFTLTISSLQPEDFATYYCQQNYASSNVDNTFGGGTKVEIK
B2: VH9-DANG / VK9-NYA (antibody, V domains shown)
VH: QQLLESGGGLVQPGGSLRLSCAASGFTFSSYAMSWVRQAPGKGLEWVGYIWSGGSTDYADSVKGRFTISRDNSKNTLYLQMNSLRAEDTAVYYCAKRYGTSYPDYGDANGFDPWGQGTLVTVSS
VL: B1 VL
B3: VH7-DANG / VK6-SYS (antibody, V domains shown)
VH: B2 VH with L4V, S6T, V11I, T27S, F28L, V47I, D60S, S61W, V62A, K96R
VL: B1 VL with A34S, N91S, A93S
B4: clone 299 VH 19 / VL 9-NYA (antibody, V domains shown)
VH: B1 VH with Q2S, L3M, E15Q, V36I, P39H, N59A, V77F
VL: B1 VL
B5: VH9-DANG / VK2-SYS (antibody, V domains shown)
VH: B2 VH
VL: B1 VL with A1D, L4M, A34N, N91S, A93S
B6: VH23-DANG / VK17-TYS (antibody, V domains shown)
VH: QSMQESGPGLVKPSQTLSLTCTVSGFSLSSYAMSWIRQHPGKGLEWIGYIWSGGSTDYASWAKSRVTISKTSTTVSLKLSSVTAADTAVYYCARRYGTSYPDYGDANGFDPWGQGTLVTVSS
VL: B1 VL with N91T, A93S
B7: clone 299 VH 21 / VL 9-NYA (antibody, V domains shown)
VH: B1 VH with Q2S, L3M, E15Q, V36I, P39H, N59A, P60S, S61W, L62A
VL: B1 VL
B8: clone 299 VH 22 / VL 9-NYA (antibody, V domains shown)
VH: B1 VH with Q2S, L3M, E15Q, P39H, N59A, P60S, S61W, L62A
VL: B1 VL
B9: VH23-DANG / VK12-HYS (antibody, V domains shown)
VH: B6 VH
VL: B1 VL with A1D, L4M, G66R, N91H, A93S
B10: clone 299 VH 16 / VL 9-NYA (antibody, V domains shown)
VH: B1 VH with Q116P
VL: B1 VL
B11: clone 299 VH 17 / VL 9-NYA (antibody, V domains shown)
VH: B1 VH with V70K, Q116P
VL: B1 VL
B12: clone 299 VH 20 / VL 9-NYA (antibody, V domains shown)
VH: B1 VH with Q2S, L3M, E15Q, V36I, P39H, N59A
VL: B1 VL
B13: VH23-DANG / VK6-SYS (antibody, V domains shown)
VH: B6 VH
VL: B1 VL with A34S, N91S, A93S
B14: VH23-DANG / VK2-SYS (antibody, V domains shown)
VH: B6 VH
VL: B1 VL with A1D, L4M, A34N, N91S, A93S
B15: clone 299 VH 18 / VL 0 (rb) (antibody, V domains shown)
VH: QVQLQESGPGLVKPSQTLSLTCTVSGFSLSSYAMSWIRQHPGKGLEWIGYIWSGGSTDYAPSLKSRVTISVDTSKNQFSLKLSSVTAADTAVYYCARRYGTSYPDYGDANGFDPWGQGTLVTVSS
VL: AYDMTQTPASVEVAVGGTVTIKCQASQSISSYLSWYQQKPGQRPKLLIYRASTLASGVSSRFKGSGSGTQFTLTISGVECADAATYYCQQCYSSSNVDNTFGGGTEVVVK
B16: clone 299 VH 11 / VL 0 (rb) (antibody, V domains shown)
VH: B2 VH with T27S, F28L, K96R
VL: B15 VL
B17: clone 299 VH 23-DANG / VL 0 (rb) (antibody, V domains shown)
VH: B6 VH
VL: B15 VL
B18: clone 299 VH 1 / VL 0 (rb) (antibody, V domains shown)
VH: B2 VH with Q1V, L4V, S6T, V11I, T27S, F28L, K96R
VL: B15 VL
B19: clone 299 VH 7 / VL 0 (rb) (antibody, V domains shown)
VH: B2 VH with L4V, S6T, V11I, T27S, F28L, V47I, D60S, S61W, V62A, K96R
VL: B15 VL
B20: clone 299 VH 5 / VL 0 (rb) (antibody, V domains shown)
VH: B2 VH with Q2S, L3M, L4E, S6T, V11I, T27S, F28L, K96R, Q116P
VL: B15 VL
B21: clone 299 VH 9 / VL 0 (rb) (antibody, V domains shown)
VH: B2 VH
VL: B15 VL
B22: VH23-DANG / VK15-AYS (antibody, V domains shown)
VH: B6 VH
VL: DIVMTQSPDSLAVSLGERATINCKSSQSISSYLIWYQQKPGQPPKLLIYRASTLASGVPDRFSGSGSGTDFTLTISSLQAEDVAVYYCQQAYSSSNVDNTFGGGTKVEIK

Experiments:
[1] = biological target: T1, human transferrin receptor (BIAcore, construct not stated) (human, UniProt P02786 89-760); test: SPR, 25 C
T1 construct: also called huTfR
T1 sequence (P02786 89-760): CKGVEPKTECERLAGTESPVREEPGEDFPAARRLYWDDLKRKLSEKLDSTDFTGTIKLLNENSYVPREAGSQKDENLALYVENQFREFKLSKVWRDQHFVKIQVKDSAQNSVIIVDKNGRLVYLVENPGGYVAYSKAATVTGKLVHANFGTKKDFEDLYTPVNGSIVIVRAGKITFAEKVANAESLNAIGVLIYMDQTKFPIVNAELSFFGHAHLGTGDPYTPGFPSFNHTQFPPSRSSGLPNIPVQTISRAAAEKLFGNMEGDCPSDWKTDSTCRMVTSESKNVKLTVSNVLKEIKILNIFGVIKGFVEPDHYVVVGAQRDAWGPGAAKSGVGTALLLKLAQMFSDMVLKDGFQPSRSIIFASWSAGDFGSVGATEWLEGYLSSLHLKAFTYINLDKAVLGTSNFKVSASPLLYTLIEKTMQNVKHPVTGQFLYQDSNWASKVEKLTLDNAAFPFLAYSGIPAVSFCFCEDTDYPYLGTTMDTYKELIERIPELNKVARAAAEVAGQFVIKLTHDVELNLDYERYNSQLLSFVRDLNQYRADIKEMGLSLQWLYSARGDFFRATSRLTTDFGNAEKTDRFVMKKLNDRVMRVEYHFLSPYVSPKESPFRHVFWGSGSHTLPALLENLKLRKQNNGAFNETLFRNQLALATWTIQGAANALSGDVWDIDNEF

[2] = biological target: T2, biotinylated human transferrin receptor (human, UniProt P02786 89-760, limits assumed, biotinylated (mono-biotinylated in Example 13)); test: SPR BIAcore B4000, biotinylated TfR captured, 25 C
T2 construct: also called human transferrin receptor-biotinylated; mono-biotinylated human transferrin receptor
T2 sequence (P02786 89-760 limits assumed): as the sequence (P02786 89-760) above
Description: A CAP sensor chip (provided in the Biotin CAPture Kit, series S #28-9202-34 GE) was mounted into a BIAcore B4000 system, normalized and addressed in a hydrodynamic manner, according to the manufacturer's instructions. In the first cycle the CAP reagent (as provided in the Kit) was addressed to spot 1, 2, 4 and 5 with a flow rate of 10 μL/min for 300 sec. The human transferrin receptor capture took place in spot 1 (human transferrin receptor-biotinylated) and spot 5 (cynomolgus transferrin receptor-biotinylated) with a flow rate of 10 μL/min and a contact time of 30 sec. The receptors were diluted to a concentration of 50 nM with running buffer (1×PBS #28995084, GE Healthcare, supplemented with 0.25 M NaCl). The antibodies were injected into all flow cells in a concentration series of 100 nM, 50 nM, 25 nM and 0 nM for 180 sec at a flow speed of 30 μL/min. Dissociation time was set to 300 sec. Regeneration of the whole complex from the CAP chip has been performed utilizing the regeneration solution provided in the Biotin CAPture Kit (120 sec with a flow rate of 10 μL/min). To control the active protein concentration a second cycle was performed in spot 5 utilizing biotinylated protein A (#P2165-2MG, Sigma) with a flow rate of 10 μL/min and a contact time of 30 sec. Spot 1 was kept empty in this control cycle. The antibodies and the regeneration were handled like in cycle 1. Relevant kinetic data was calculated using the BIAcore B4000 evaluation software. The dissociation from the human transferrin receptor has been determined applying the 1:1 dissociation fit.

Row | Binder | koff [1] [s⁻¹] | koff [2] [s⁻¹]
1 | B1 | 0.00142 | –
2 | B2 | – | 0.00182
3 | B3 | – | 0.0308
4 | B4 | 0.00617 | –
5 | B5 | – | 0.0402
6 | B6 | – | 0.00229
7 | B7 | 0.00113 | –
8 | B8 | 0.00126 | –
9 | B9 | – | 0.0153
10 | B10 | 0.00136 | –
11 | B11 | 0.000934 | –
12 | B12 | 0.00189 | –
13 | B13 | – | 0.0132
14 | B14 | – | 0.00522
15 | B15 | 0.00109 | –
16 | B16 | 0.000905 | –
17 | B17 | 0.000338 | –
18 | B18 | 0.000908 | –
19 | B19 | 0.000515 | –
20 | B20 | 0.000772 | –
21 | B21 | 0.000901 | –
22 | B22 | – | 0.00697
